Results from patent publication US7002001.

Experiments:
[1] = biological target: C3 mutant with cys(C) at position 1303 and glutamine at 1320
[2] = biological target: C3 mutant with gly(G) at position 1303 and glutamine at 1320
[3] = biological target: C3 mutant with trp(W) at position 1303 and glutamine at 1320
[4] = biological target: C3 mutant with tyr(Y) at position 1303 and glutamine at 1320
[5] = biological target: E1Q2 mutant C3 (Arg1303 changed to Glu, plus Arg1320 changed to Gln)
[6] = biological target: mutant C3M-26 (Arg1303->Gln, Arg1320->Gln)
[7] = biological target: mutant C3M-51 (Arg1320->Gln)
[8] = biological target: mutant C3M-I23 (Arg1303->Gln)
[9] = biological target: wild-type human C3 (expressed from the PC3 coding sequence)
Chain of wild-type human C3 (expressed from the PC3 coding sequence) (chain, as listed by the source, chain 1 of 2): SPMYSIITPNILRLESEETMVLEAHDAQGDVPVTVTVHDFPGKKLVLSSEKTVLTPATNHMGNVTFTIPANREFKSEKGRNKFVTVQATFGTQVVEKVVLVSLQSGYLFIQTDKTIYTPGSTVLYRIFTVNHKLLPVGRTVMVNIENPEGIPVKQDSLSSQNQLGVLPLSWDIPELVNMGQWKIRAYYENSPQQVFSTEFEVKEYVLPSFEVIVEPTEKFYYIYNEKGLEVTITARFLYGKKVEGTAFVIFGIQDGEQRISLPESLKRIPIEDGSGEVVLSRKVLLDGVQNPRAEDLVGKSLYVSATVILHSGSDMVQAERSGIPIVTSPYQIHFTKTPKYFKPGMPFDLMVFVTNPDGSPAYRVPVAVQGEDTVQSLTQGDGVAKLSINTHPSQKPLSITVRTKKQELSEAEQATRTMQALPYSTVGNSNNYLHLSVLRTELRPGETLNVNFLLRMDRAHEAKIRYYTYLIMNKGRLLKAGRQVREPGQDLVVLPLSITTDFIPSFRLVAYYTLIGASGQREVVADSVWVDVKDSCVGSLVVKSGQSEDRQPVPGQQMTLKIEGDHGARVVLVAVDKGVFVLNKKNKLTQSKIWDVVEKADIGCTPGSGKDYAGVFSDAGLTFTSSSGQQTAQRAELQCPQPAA
Chain of wild-type human C3 (expressed from the PC3 coding sequence) (chain, as listed by the source, chain 2 of 2): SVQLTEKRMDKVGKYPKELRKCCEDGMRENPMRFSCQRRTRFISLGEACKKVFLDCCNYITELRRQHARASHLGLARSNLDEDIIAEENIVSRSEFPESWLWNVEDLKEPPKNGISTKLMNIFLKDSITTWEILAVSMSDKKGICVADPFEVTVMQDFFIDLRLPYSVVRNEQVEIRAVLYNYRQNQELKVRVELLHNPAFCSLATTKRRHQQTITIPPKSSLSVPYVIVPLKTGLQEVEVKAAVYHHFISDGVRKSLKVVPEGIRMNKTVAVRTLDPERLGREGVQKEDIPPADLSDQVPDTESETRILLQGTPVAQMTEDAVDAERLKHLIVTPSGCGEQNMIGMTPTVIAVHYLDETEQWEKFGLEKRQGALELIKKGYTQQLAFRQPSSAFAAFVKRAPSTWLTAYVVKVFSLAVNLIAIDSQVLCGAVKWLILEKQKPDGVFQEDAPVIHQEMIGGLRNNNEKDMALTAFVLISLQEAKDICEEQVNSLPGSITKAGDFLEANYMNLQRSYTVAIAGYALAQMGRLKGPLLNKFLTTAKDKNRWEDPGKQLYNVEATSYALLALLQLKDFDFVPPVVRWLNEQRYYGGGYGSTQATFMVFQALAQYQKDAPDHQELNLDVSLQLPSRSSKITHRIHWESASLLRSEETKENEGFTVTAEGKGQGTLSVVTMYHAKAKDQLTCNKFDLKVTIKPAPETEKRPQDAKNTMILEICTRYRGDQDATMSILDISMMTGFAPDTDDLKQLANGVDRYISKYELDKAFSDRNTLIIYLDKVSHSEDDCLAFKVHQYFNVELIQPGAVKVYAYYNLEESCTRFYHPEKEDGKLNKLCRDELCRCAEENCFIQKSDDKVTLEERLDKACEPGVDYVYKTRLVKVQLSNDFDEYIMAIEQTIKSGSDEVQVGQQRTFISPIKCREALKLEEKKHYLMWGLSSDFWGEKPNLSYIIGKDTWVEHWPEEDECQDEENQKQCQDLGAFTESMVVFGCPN

Chain of mutant C3M-26 (Arg1303->Gln, Arg1320->Gln) (chain, as listed by the source, stated change not applied, chain 1 of 2): as the sequence (chain, as listed by the source, chain 1 of 2) above
Chain of mutant C3M-26 (Arg1303->Gln, Arg1320->Gln) (chain, as listed by the source, stated change not applied, chain 2 of 2): as the sequence (chain, as listed by the source, chain 2 of 2) above, with R632Q, R649Q counted along it
Chain of mutant C3M-51 (Arg1320->Gln) (chain, as listed by the source, stated change not applied, chain 1 of 2): as the sequence (chain, as listed by the source, chain 1 of 2) above
Chain of mutant C3M-51 (Arg1320->Gln) (chain, as listed by the source, stated change not applied, chain 2 of 2): as the sequence (chain, as listed by the source, chain 2 of 2) above, with R649Q counted along it
Chain of mutant C3M-I23 (Arg1303->Gln) (chain, as listed by the source, stated change not applied, chain 1 of 2): as the sequence (chain, as listed by the source, chain 1 of 2) above
Chain of mutant C3M-I23 (Arg1303->Gln) (chain, as listed by the source, stated change not applied, chain 2 of 2): as the sequence (chain, as listed by the source, chain 2 of 2) above, with R632Q counted along it
Chain of C3 mutant with trp(W) at position 1303 and glutamine at 1320 (chain, as listed by the source mutant, chain 1 of 2): as the sequence (chain, as listed by the source, chain 1 of 2) above
Chain of C3 mutant with trp(W) at position 1303 and glutamine at 1320 (chain, as listed by the source mutant, chain 2 of 2): as the sequence (chain, as listed by the source, chain 2 of 2) above, with R632W, R649Q counted along it
Chain of C3 mutant with cys(C) at position 1303 and glutamine at 1320 (chain, as listed by the source mutant, chain 1 of 2): as the sequence (chain, as listed by the source, chain 1 of 2) above
Chain of C3 mutant with cys(C) at position 1303 and glutamine at 1320 (chain, as listed by the source mutant, chain 2 of 2): as the sequence (chain, as listed by the source, chain 2 of 2) above, with R632C, R649Q counted along it
Chain of C3 mutant with tyr(Y) at position 1303 and glutamine at 1320 (chain, as listed by the source mutant, chain 1 of 2): as the sequence (chain, as listed by the source, chain 1 of 2) above
Chain of C3 mutant with tyr(Y) at position 1303 and glutamine at 1320 (chain, as listed by the source mutant, chain 2 of 2): as the sequence (chain, as listed by the source, chain 2 of 2) above, with R632Y, R649Q counted along it
Chain of C3 mutant with gly(G) at position 1303 and glutamine at 1320 (chain, as listed by the source mutant, chain 1 of 2): as the sequence (chain, as listed by the source, chain 1 of 2) above
Chain of C3 mutant with gly(G) at position 1303 and glutamine at 1320 (chain, as listed by the source mutant, chain 2 of 2): as the sequence (chain, as listed by the source, chain 2 of 2) above, with R632G, R649Q counted along it
Chain of E1Q2 mutant C3 (Arg1303 changed to Glu, plus Arg1320 changed to Gln) (chain, as listed by the source mutant, chain 1 of 2): as the sequence (chain, as listed by the source, chain 1 of 2) above
Chain of E1Q2 mutant C3 (Arg1303 changed to Glu, plus Arg1320 changed to Gln) (chain, as listed by the source mutant, chain 2 of 2): as the sequence (chain, as listed by the source, chain 2 of 2) above, with R632E, R649Q counted along it

B1: factor I (protein)
chain: KVTYTSQEDLVEKKCLAKKYTHLSCDKVFCQPWQRCIEGTCVCKLPYQCPKNGTAVCATNRRSFPTYCQQKSLECLHPGTKFLNNGTCTAEGKFSVSLKHGNTDSEGIVEVKLVDQDKTMFICKSSWSMREANVACLDLGFQQGADTQRRFKLSDLSINSTECLHVHCRGLETSLAECTFTKRRTMGYQDFADVVCYTQKADSPMDDFFQCVNGKYISQMKACDGINDCGDQSDELCCKACQGKGFHCKSGVCIPSQYQCNGEVDCITGEDEVGCAGFASVTQEETEILTADMDAERRRIKSLLPKLSCGVKNRMHIRRKRIVGGKRAQLGDLPWQVAIKDASGITCGGIYIGGCWILTAAHCLRASKTHRYQIWTTVVDWIHPDLKRIVIEYVDRIIFHENYNAGTYQNDIALIEMKKDGNKKDCELPRSIPACVPWSPYLFQPNDTCIVSGWGREKDNERVFSLQWGEVKLISNCSKFYGNRFYEKEMECAGTYDGSIDACKGDSGGPLVCMDANNVTYVWGVVSWGENCGKPEFPGVYTKVANYFDWISYHVGRPFISQYNV
Factor I-mediated cleavage at position 1303 (35S label, SDS-PAGE, autoradiography) [1]: cleavage occurs in the order: arg(R)>tyr(Y)>cys(C) and trp(W)>gln(Q)>gly(G) and glu(E) | Factor I-mediated cleavage at position 1303 (35S label, SDS-PAGE, autoradiography) [2]: cleavage occurs in the order: arg(R)>tyr(Y)>cys(C) and trp(W)>gln(Q)>gly(G) and glu(E) | Factor I-mediated cleavage at position 1303 (35S label, SDS-PAGE, autoradiography) [3]: cleavage occurs in the order: arg(R)>tyr(Y)>cys(C) and trp(W)>gln(Q)>gly(G) and glu(E) | Factor I-mediated cleavage at position 1303 (35S label, SDS-PAGE, autoradiography) [4]: cleavage occurs in the order: arg(R)>tyr(Y)>cys(C) and trp(W)>gln(Q)>gly(G) and glu(E) | Factor I-mediated cleavage at position 1303 (35S label, SDS-PAGE, autoradiography) [5]: cleavage occurs in the order: arg(R)>tyr(Y)>cys(C) and trp(W)>gln(Q)>gly(G) and glu(E) | Factor I-mediated cleavage at position 1303 (35S label, SDS-PAGE, autoradiography) [6]: cleavage occurs in the order: arg(R)>tyr(Y)>cys(C) and trp(W)>gln(Q)>gly(G) and glu(E) | cleavage of the C3b-like product by factors H and I (immunoprecipitation, western blot) [6]: It was also very resistant to the additional factors H and I (3-D) in comparison with the unmutated C3 (1) and other mutants (2 and 4) | Factor I-mediated cleavage at position 1303 (35S label, SDS-PAGE, autoradiography) [7]: cleavage occurs in the order: arg(R)>tyr(Y)>cys(C) and trp(W)>gln(Q)>gly(G) and glu(E) | cleavage of the C3b-like product by factors H and I (immunoprecipitation, western blot) [7]: the absence of a 43 kDa band indicates that it is not cleaved at the mutated Gln1320 | cleavage of the C3b-like product by factors H and I (immunoprecipitation, western blot) [8]: no 68 kDa band was present, showing that this mutant is resistant to cleavage at the mutated Gln1303 | cleavage of the C3b product by factors H and I (immunoprecipitation, western blot) [9]: the C3b product is further cleaved by endogenous enzymes in 1-B or added factors H and I in 1-D. The 43 kDa band indicates cleavage at Arg1320, and the 68 kDa band (visible in longer exposures) indicates cleavage at Arg1303
